In patent publication US20030219410A1 (TRANSGENE S A, published 2003):

Molecular target: T1, recombinant PML (wild-type 69 kDa isoform PML, PML3B) (UniProt P29590 1-560)
T1 construct: Untagged protein used in the co-transfection and co-localisation experiments; also called Promyelocytic Leukemia Protein
T1 sequence: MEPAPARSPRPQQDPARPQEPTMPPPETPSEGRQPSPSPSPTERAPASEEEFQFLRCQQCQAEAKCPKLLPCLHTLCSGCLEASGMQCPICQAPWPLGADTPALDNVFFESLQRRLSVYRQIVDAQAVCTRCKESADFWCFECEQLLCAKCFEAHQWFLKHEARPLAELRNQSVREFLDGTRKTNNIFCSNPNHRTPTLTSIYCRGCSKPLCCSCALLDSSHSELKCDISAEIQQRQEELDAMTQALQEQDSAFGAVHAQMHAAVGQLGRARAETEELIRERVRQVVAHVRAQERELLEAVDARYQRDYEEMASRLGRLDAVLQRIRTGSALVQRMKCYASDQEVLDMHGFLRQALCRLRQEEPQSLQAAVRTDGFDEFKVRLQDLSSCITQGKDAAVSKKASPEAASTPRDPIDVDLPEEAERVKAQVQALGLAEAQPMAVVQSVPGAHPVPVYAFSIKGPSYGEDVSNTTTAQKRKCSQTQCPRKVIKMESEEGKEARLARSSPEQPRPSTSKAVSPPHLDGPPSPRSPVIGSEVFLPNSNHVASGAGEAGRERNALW
Test: co-localisation by immunostaining and EM in transiently co-transfected cells

B1: recombinant wt pIX protein (other)
chain: MSTNSFDGSIVSSYLTTRMPPWAGVRQNVMGSSIDGRPVLPANSTTLTYETVSGTPLETAASAAASAAAATARGIVTDFAFLSPLASSAASRSSARDDKLTALLAQLDSLTRELNVVSQQLLDLRQQVSALKASSPPNAV
notes: Untagged protein used in the co-transfection and co-localisation experiments
B1: binds.
